Data from the supplement of paper PMC3353916.
± gives the standard deviation of the averaged measurements.

System: Sindbis virus TE/5'2J-GFP
Assay: percent infected (GFP+ in RFP+ ISG-expressing cells); higher = more infection (less antiviral activity)
Experimental: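 Confirmatory testing of 87 ISGs. Triplicate wells of BHK/HA-Zeo (control) or BHK/NZAP-Zeo (ZAP) cells were transduced with lentiviruses co-expressing a human ISG plus TagRFP, then infected 48 h later with SINV TE/5'2J-GFP (moi 5). The % GFP+ cells among RFP+ cells was measured by flow cytometry at 8 h post infection. Fluc lentivirus served as control. Three independent experiments.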

[1] = experiment: confirmatory screen 1, BHK/HA-Zeo (control)
[2] = experiment: confirmatory screen 1, BHK/NZAP-Zeo (ZAP)
[3] = experiment: confirmatory screen 2, BHK/HA-Zeo (control)
[4] = experiment: confirmatory screen 2, BHK/NZAP-Zeo (ZAP)
[5] = experiment: confirmatory screen 3, BHK/HA-Zeo (control)
[6] = experiment: confirmatory screen 3, BHK/NZAP-Zeo (ZAP)
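Note: Interferon-defective BHK-21 derivatives, ZAP line overexpressing the rat ZAP N-terminal zinc finger domain fused to Zeocin resistance, GFP scored within live singlet TagRFP+ cells.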

Row | Substance | percent infected [1] [%] | percent infected [2] [%] | percent infected [3] [%] | percent infected [4] [%] | percent infected [5] [%] | percent infected [6] [%]
1 | MSNGYSTDENFRYLISCFRARVKMYIQVEPVLDYLTFLPAEVKEQIQRTVATSGNMQAVELLLSTLEKGVWHLGWTREFVEALRRTGSPLAARYMNPELTDLPSPSFENAHDEYLQLLNLLQPTLVDKLLVRDVLDKCMEEELLTIEDRNRIAAAENNGNESGVRELLKRIVQKENWFSAFLNVLRQTGNNELVQELTGSDCSESNAEIENLSQVDGPQVEEQLLSTTVQPNLEKEVWGMENNSSESSFADSSVVSESDTSLAEGSVSCLDESLGHNSNMGSDSGTMGSDSDEENVAARASPEPELQLRPYQMEVAQPALEGKNIIICLPTGSGKTRVAVYIAKDHLDKKKKASEPGKVIVLVNKVLLVEQLFRKEFQPFLKKWYRVIGLSGDTQLKISFPEVVKSCDIIISTAQILENSLLNLENGEDAGVQLSDFSLIIIDECHHTNKEAVYNNIMRHYLMQKLKNNRLKKENKPVIPLPQILGLTASPGVGGATKQAKAEEHILKLCANLDAFTIKTVKENLDQLKNQIQEPCKKFAIADATREDPFKEKLLEIMTRIQTYCQMSPMSDFGTQPYEQWAIQMEKKAAKEGNRKERVCAEHLRKYNEALQINDTIRMIDAYTHLETFYNEEKDKKFAVIEDDSDEGGDDEYCDGDEDEDDLKKPLKLDETDRFLMTLFFENNKMLKRLAENPEYENEKLTKLRNTIMEQYTRTEESARGIIFTKTRQSAYALSQWITENEKFAEVGVKAHHLIGAGHSSEFKPMTQNEQKEVISKFRTGKINLLIATTVAEEGLDIKECNIVIRYGLVTNEIAMVQARGRARADESTYVLVAHSGSGVIEHETVNDFREKMMYKAIHCVQNMKPEEYAHKILELQMQSIMEKKMKTKRNIAKHYKNNPSLITFLCKNCSVLACSGEDIHVIEKMHHVNMTPEFKELYIVRENKALQKKCADYQINGEIICKCGQAWGTMMVHKGLDLPCLKIRNFVVVFKNNSTKKQYKKWVELPITFPNLDYSECCLFSDED [IFIH1] | 70.9 ± 2.3 | 14.9 ± 0.81 | 95.18 ± 0.27 | 92.703 ± 0.051 | 85 ± 1.1 | 81 ± 2.6
2 | MSSAIERKSLDPSEEPVDEVLQIPPSLLTCGGCQQNIGDRYFLKAIDQYWHEDCLSCDLCGCRLGEVGRRLYYKLGRKLCRRDYLRLFGQDGLCASCDKRIRAYEMTMRVKDKVYHLECFKCAACQKHFCVGDRYLLINSDIVCEQDIYEWTKINGMI [LMO2] | 95.7 ± 1.2 | 86.1 ± 1.6 | 95.94 ± 0.44 | 94.18 ± 0.17 | 92.69 ± 0.33 | 92.61 ± 0.82
3 | MSSENCFVAENSSLHPESGQENDATSPHFSTRHEGSFQVPVLCAVMNVVFITILIIALIALSVGQYNCPGQYTFSMPSDSHVSSCSEDWVGYQRKCYFISTVKRSWTSAQNACSEHGATLAVIDSEKDMNFLKRYAGREEHWVGLKKEPGHPWKWSNGKEFNNWFNVTGSDKCVFLKNTEVSSMECEKNLYWICNKPYK [CD69] | 95.94 ± 0.47 | 68.2 ± 4.8 | 94.01 ± 0.54 | 94.27 ± 0.39 | 91.7 ± 1.1 | 93.02 ± 0.27
4 | MSSILPFTPPIVKRLLGWKKGEQNGQEEKWCEKAVKSLVKKLKKTGQLDELEKAITTQNVNTKCITIPRSLDGRLQVSHRKGLPHVIYCRLWRWPDLHSHHELRAMELCEFAFNMKKDEVCVNPYHYQRVETPVLPPVLVPRHTEIPAEFPPLDDYSHSIPENTNFPAGIEPQSNIPETPPPGYLSEDGETSDHQMNHSMDAGSPNLSPNPMSPAHNNLDLQPVTYCEPAFWCSISYYELNQRVGETFHASQPSMTVDGFTDPSNSERFCLGLLSNVNRNAAVELTRRHIGRGVRLYYIGGEVFAECLSDSAIFVQSPNCNQRYGWHPATVCKIPPGCNLKIFNNQEFAALLAQSVNQGFEAVYQLTRMCTIRMSFVKGWGAEYRRQTVTSTPCWIELHLNGPLQWLDKVLTQMGSPSIRCSSVS [SMAD3] | 77.4 ± 2.3 | 40.7 ± 1.2 | 93.92 ± 0.8 | 94.56 ± 0.45 | 80.2 ± 1.3 | 88.2 ± 1.7
5 | MSSWSRQRPKSPGGIQPHVSRTLFLLLLLAASAWGVTLSPKDCQVFRSDHGSSISCQPPAEIPGYLPADTVHLAVEFFNLTHLPANLLQGASKLQELHLSSNGLESLSPEFLRPVPQLRVLDLTRNALTGLPPGLFQASATLDTLVLKENQLEVLEVSWLHGLKALGHLDLSGNRLRKLPPGLLANFTLLRTLDLGENQLETLPPDLLRGPLQLERLHLEGNKLQVLGKDLLLPQPDLRYLFLNGNKLARVAAGAFQGLRQLDMLDLSNNSLASVPEGLWASLGQPNWDMRDGFDISGNPWICDQNLSDLYRWLQAQKDKMFSQNDTRCAGPEAVKGQTLLAVAKSQ [LRG1] | 95.1 ± 1 | 68.2 ± 4.8 | 95.09 ± 0.35 | 94.92 ± 0.53 | 93.09 ± 0.65 | 94.47 ± 0.18
6 | MTLNNVTMRQGTVGMQPQQQRWSIPADGRHLMVQKEPHQYSHRNRHSATPEDHCRRSWSSDSTDSVISSESGNTYYRVVLIGEQGVGKSTLANIFAGVHDSMDSDCEVLGEDTYERTLMVDGESATIILLDMWENKGENEWLHDHCMQVGDAYLIVYSITDRASFEKASELRIQLRRARQTEDIPIILVGNKSDLVRCREVSVSEGRACAVVFDCKFIETSAAVQHNVKELFEGIVRQVRLRRDSKEKNERRLAYQKRKESMPRKARRFWGKIVAKNNKNMAFKLKSKSCHDLSVL [GEM] | 91.5 ± 3.5 | 65 ± 4 | 94.19 ± 0.65 | 94.64 ± 0.36 | 94.39 ± 0.59 | 93.55 ± 0.12
7 | MTLRCLEPSGNGGEGTRSQWGTAGSAEEPSPQAARLAKALRELGQTGWYWGSMTVNEAKEKLKEAPEGTFLIRDSSHSDYLLTISVKTSAGPTNLRIEYQDGKFRLDSIICVKSKLKQFDSVVHLIDYYVQMCKDKRTGPEAPRNGTVHLYLTKPLYTSAPSLQHLCRLTINKCTGAIWGLPLPTRLKDYLEEYKFQV [SOCS2] | 95.84 ± 0.81 | 76.8 ± 4.2 | 95.47 ± 0.42 | 94.44 ± 0.35 | 92.29 ± 0.39 | 92.23 ± 0.73
8 | MTTEQRRSLQAFQDYIRKTLDPTYILSYMAPWFREEEVQYIQAEKNNKGPMEAATLFLKFLLELQEEGWFRGFLDALDHAGYSGLYEAIESWDFKKIEKLEEYRLLLKRLQPEFKTRIIPTDIISDLSECLINQECEEILQICSTKGMMAGAEKLVECLLRSDKENWPKTLKLALEKERNKFSELWIVEKGIKDVETEDLEDKMETSDIQIFYQEDPECQNLSENSCPPSEVSDTNLYSPFKPRNYQLELALPAMKGKNTIICAPTGCGKTFVSLLICEHHLKKFPQGQKGKVVFFANQIPVYEQQKSVFSKYFERHGYRVTGISGATAENVPVEQIVENNDIIILTPQILVNNLKKGTIPSLSIFTLMIFDECHNTSKQHPYNMIMFNYLDQKLGGSSGPLPQVIGLTASVGVGDAKNTDEALDYICKLCASLDASVIATVKHNLEELEQVVYKPQKFFRKVESRISDKFKYIIAQLMRDTESLAKRICKDLENLSQIQNREFGTQKYEQWIVTVQKACMVFQMPDKDEESRICKALFLYTSHLRKYNDALIISEHARMKDALDYLKDFFSNVRAAGFDEIEQDLTQRFEEKLQELESVSRDPSNENPKLEDLCFILQEEYHLNPETITILFVKTRALVDALKNWIEGNPKLSFLKPGILTGRGKTNQNTGMTLPAQKCILDAFKASGDHNILIATSVADEGIDIAQCNLVILYEYVGNVIKMIQTRGRGRARGSKCFLLTSNAGVIEKEQINMYKEKMMNDSILRLQTWDEAVFREKILHIQTHEKFIRDSQEKPKPVPDKENKKLLCRKCKALACYTADVRVIEECHYTVLGDAFKECFVSRPHPKPKQFSSFEKRAKIFCARQNCSHDWGIHVKYKTFEIPVIKIESFVVEDIATGVQTLYSKWKDFHFEKIPFDPAEMSK [DDX58] | 38 ± 4.1 | 4.81 ± 4.5 | 96.53 ± 0.19 | 89.2 ± 2.2 | 75.6 ± 6 | 23.2 ± 3.1
9 | PCTK2 | 97.15 ± 0.48 | 70.7 ± 3.2 | 96.52 ± 0.12 | 94.42 ± 0.39 | 83.84 ± 0.21 | 86.8 ± 1.1
10 | PDK1 | 94.39 ± 0.65 | 65.7 ± 2.9 | 95.24 ± 0.62 | 95.39 ± 0.19 | 93.83 ± 0.42 | 93.94 ± 0.33
11 | PRIC285 | 94.6 ± 2.5 | 53.7 ± 6.2 | 96.59 ± 0.24 | 95.01 ± 0.88 | 83.7 ± 1.5 | 87.13 ± 0.73
12 | TIMP1 | 94.88 ± 0.13 | 66.4 ± 2.3 | 94.66 ± 0.28 | 93.37 ± 0.42 | 90.3 ± 1.8 | 92.63 ± 0.18
13 | UBE2L6 | 95.97 ± 0.92 | 78.8 ± 2.3 | 96.37 ± 0.3 | 95.27 ± 0.14 | 94.34 ± 0.69 | 93.02 ± 0.28
